In PMC3607624 (Journal of molecular biology, 2011) one finds Kd data, which are given here for one molecule.

Experiment [1] concerns the target microtubules (tubulin heterodimer) (UniProt P02550 1-451). The experiment is described as follows: co-sedimentation.
The target in experiment [2] is F-actin (UniProt P68135 1-377). The experiment is described as follows: co-sedimentation.

The Kd is the concentration at which binding is half-saturated. The low end stands for tighter binding, the high end for weaker binding.

Chain of microtubules (tubulin heterodimer) (P02550 whole entry, chain 1 of 2): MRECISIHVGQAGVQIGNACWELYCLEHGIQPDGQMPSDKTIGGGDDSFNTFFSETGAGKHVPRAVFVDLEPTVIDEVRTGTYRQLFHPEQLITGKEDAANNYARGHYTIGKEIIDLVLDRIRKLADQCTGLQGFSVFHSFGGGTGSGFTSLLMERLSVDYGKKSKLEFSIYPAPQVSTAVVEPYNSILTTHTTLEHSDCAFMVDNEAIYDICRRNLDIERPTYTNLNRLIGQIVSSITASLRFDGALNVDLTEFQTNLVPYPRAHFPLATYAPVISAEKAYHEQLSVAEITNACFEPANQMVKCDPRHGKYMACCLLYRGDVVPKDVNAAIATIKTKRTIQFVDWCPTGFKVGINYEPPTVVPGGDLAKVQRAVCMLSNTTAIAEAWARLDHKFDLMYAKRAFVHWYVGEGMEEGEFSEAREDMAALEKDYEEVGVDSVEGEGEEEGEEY
Chain of microtubules (tubulin heterodimer) (P02554 whole entry, chain 2 of 2, further chain): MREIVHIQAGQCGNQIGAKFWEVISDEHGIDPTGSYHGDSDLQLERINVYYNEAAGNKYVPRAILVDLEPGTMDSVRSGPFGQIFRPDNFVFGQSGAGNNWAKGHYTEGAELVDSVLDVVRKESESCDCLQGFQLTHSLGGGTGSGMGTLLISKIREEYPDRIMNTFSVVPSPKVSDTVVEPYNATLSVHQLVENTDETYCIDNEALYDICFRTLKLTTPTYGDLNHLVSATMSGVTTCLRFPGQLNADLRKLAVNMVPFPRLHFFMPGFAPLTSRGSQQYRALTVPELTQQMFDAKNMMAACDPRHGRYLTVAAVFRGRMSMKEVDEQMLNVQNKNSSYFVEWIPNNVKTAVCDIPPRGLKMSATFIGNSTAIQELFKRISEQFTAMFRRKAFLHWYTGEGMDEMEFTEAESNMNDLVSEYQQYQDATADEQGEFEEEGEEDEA

B1: Dictyostelium myosin 7 N-terminal MyTH4/FERM domain (MF1) (domain or fragment, Dictyostelium discoideum, UniProt Q9U1M8 1085-1620, looked up)
chain: SATATGNNTPNSSSASASQSTNQVNPQPTVSVVELPQILNDEEISLYSFYDYANKNFNIEKLKQKDDIFSYQKSHIKSSLLVHSDAEQTKVAVEIFSKVLHYMNSNPLVSKKDPADFYSPVKFILTKGLAIESLRDEIYCQLIKQSTSNPIQDLNIRVWELIHFTCSTFPPTRKLIKYFAAYLKTTIQQSDVSKSVKDSAQASYFILQRFTLNGARKQVPSVTELESIKENRPIFVRITATDGSLKGLHIDSATTCQESSNDLSQRSRMRVNSKENGFTIIESFNGIERDIAPTDKLCDVLSKVENLQATLSSKIQVNFKFVFKKKLFFDNITNNVPTTSINVENEFYYHQLFNDLFNSNYCKDQDYQISIGSLKLQFESSDYTDEIRAWLPGNGRGKYFTTDIEKNRFDDFINKYKSHKGLSPEDAKKQMVQLLEKHPLANCSLVVCEHQSESLPYPKNFVLALNVNGINIYDPATSKMLESVKYSNQSQQNLKSDDKSVSIILENKSTLQAFTGDVQKLVSLIKEYSLYLRNNA
For the molecule B1, the Kd in experiment [1] turned out to be 1.7 ± 0.5 µM; in experiment [2], 13.7 ± 2.6 µM.
